In the supplement of paper PMC10567573:

B1: EMD (parent)
chain: YQSKGYNDDYYEESYFTTRTYGEP

Variants of: B1
Experiment: protein stability index of a GFP-peptide fusion (GPS, HEK-293T) (PSI 1-6); higher = more stable
Conditions: c terminus: a fixed tail appended
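Also: lentivirally expressed fusions sorted by FACS into six bins by GFP to DsRed ratio, PSI derived from sequencing read proportions per bin multiplied by bin number.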

Variant	protein stability index
YQSKGYNDDYYEESYFTTRTYGEE	2.12
YQSKGYNDDYYEESYFTTRTYGEV	1.85
YQSKGYNDDYYEESYFTTRTYGEQ	2.52
YQSKGYNDDYYEESYFTTRTYGEI	1.86
YQSKGYNDDYYEESYFTTRTYGEL	2.1
YQSKGYNDDYYEESYFTTRTYGEF	1.57
YQSKGYNDYYYEESYFTTRTYGEP	1.79
YQSKGYNDCYYEESYFTTRTYGEP	1.18
YQSKGYNDAYYEESYFTTRTYGEP	1.44
YQSKGYNDNYYEESYFTTRTYGEP	1.74
YQSKGYNDGYYEESYFTTRTYGEP	2.7
YQSKGYNDTYYEESYFTTRTYGEP	1.79
YQSKGYNDWYYEESYFTTRTYGEP	2.68
YQSCGYNDDYYEESYFTTRTYGEP	2.63
YQSLGYNDDYYEESYFTTRTYGEP	2.06
YQSNGYNDDYYEESYFTTRTYGEP	2.36
YQSAGYNDDYYEESYFTTRTYGEP	2.36
YQSQGYNDDYYEESYFTTRTYGEP	2.39
YQSTGYNDDYYEESYFTTRTYGEP	2.38
YQSPGYNDDYYEESYFTTRTYGEP	2.5
YQSYGYNDDYYEESYFTTRTYGEP	2.06
YQSKGYNDDYYEESYCTTRTYGEP	3.12
YQSKGYNDDYYEESYDTTRTYGEP	3.47
YQSKGYNDDYYEESYKTTRTYGEP	3.15

Variant	protein stability index
YQSKGYNDDYYEESYHTTRTYGEP	3.08
YQSKGYNDDYYEESYGTTRTYGEP	3.26
YQSKGYNDDYYEESYWTTRTYGEP	1.45
YQSKGYNDDYYEESYETTRTYGEP	3.64
YQSKGYNDDYYEESYATTRTYGEP	3.2
YQSKGYNDDYYEESYFTTRTNGEP	2.68
YQSKGYNDDYYEESYFTTRTTGEP	2.27
YQSKGYNDDYYEESYFTTRTRGEP	2.46
YQSKGYNDDYYEESYFTTRTDGEP	3.06
YQSKGYNDDYYEESYFTTRTQGEP	2.53
YQSKGYNDDYYEESYFTTRTCGEP	2.81
YQSKGYNDDYYEESYFTTRTGGEP	2.98
YQSKGYNDDYYEESYFTTRTAGEP	2.76
YQSKGYNDDYYEESYFTTRTIGEP	2.39
YQSKGYNDDYYEESYFTTRTYGHP	2.19
YQSKGYNDDYYEESYFTTRTYGLP	2.18
YQSKGYNDDYYEESYFTTRTYGWP	2.35
YQSKGYNDDYYEESYFTTRTYGDP	2.28
YQSKGYNDDYYEESYFTTRTYGTP	2.24
YQSKGYNDDYYEESYFTTRTYGCP	2.12
YQSKGYNDDYYEESYFTTRTYGRP	1.91
YQSKGYNDDYYEESYFTTRTYGMP	1.55
YQSKGYNDDYYEESYFTTRTYGSP	2.12
YQSKGYNDDYYEESYFTTRTYGYP	1.99

Variant	protein stability index
YQSKGKNDDYYEESYFTTRTYGEP	3.05
YQSKGVNDDYYEESYFTTRTYGEP	3.31
YQSKGQNDDYYEESYFTTRTYGEP	2.93
YQSKGNNDDYYEESYFTTRTYGEP	3.16
YQSKGDNDDYYEESYFTTRTYGEP	3.68
YQSKGMNDDYYEESYFTTRTYGEP	2.85
YQSKGANDDYYEESYFTTRTYGEP	3.26
YQSKGFNDDYYEESYFTTRTYGEP	2.4
YQSKGYNDDYYEEFYFTTRTYGEP	1.78
YQSKGYNDDYYEEHYFTTRTYGEP	2.13
YQSKGYNDDYYEEGYFTTRTYGEP	2.37
YQSKGYNDDYYEEMYFTTRTYGEP	2.26
YQSKGYNDDYYEERYFTTRTYGEP	1.9
YQSKGYNDDYYEECYFTTRTYGEP	1.77
YQSKGYNDDYYEEYYFTTRTYGEP	2.28
YQSKGYNDDYYEEAYFTTRTYGEP	1.88
YQSKGYNDDYYEEPYFTTRTYGEP	2.62
YQSKGYNDDYYEEIYFTTRTYGEP	1.76
YQSKGYLDDYYEESYFTTRTYGEP	1.71
YQSKGYYDDYYEESYFTTRTYGEP	1.88
YQSKGYHDDYYEESYFTTRTYGEP	2.18
YQSKGYFDDYYEESYFTTRTYGEP	3.55
YQSKGYQDDYYEESYFTTRTYGEP	2.14
YQSKGYPDDYYEESYFTTRTYGEP	2.17

Variant	protein stability index
YQSKGYSDDYYEESYFTTRTYGEP	2.47
YQSKGYVDDYYEESYFTTRTYGEP	2.13
YQSKGYKDDYYEESYFTTRTYGEP	1.94
YQSKGYNDDYYEKSYFTTRTYGEP	1.67
YQSKGYNDDYYENSYFTTRTYGEP	1.64
YQSKGYNDDYYEDSYFTTRTYGEP	2.42
YQSKGYNDDYYEFSYFTTRTYGEP	3.37
YQSKGYNDDYYELSYFTTRTYGEP	1.93
YQSKGYNDDYYEASYFTTRTYGEP	1.95
YQSKGYNDDYYGESYFTTRTYGEP	1.84
YQSKGYNDDYYCESYFTTRTYGEP	1.75
YQSKGYNDDYYVESYFTTRTYGEP	1.71
YQSKGYNDDYYHESYFTTRTYGEP	1.52
YQSKGYNDDYYNESYFTTRTYGEP	1.95
YQSKGYNDDYYLESYFTTRTYGEP	2.14
YQSKEYNDDYYEESYFTTRTYGEP	3.1
YQSKCYNDDYYEESYFTTRTYGEP	1.95
YQSKMYNDDYYEESYFTTRTYGEP	1.74
YQSKIYNDDYYEESYFTTRTYGEP	2.18
YQSKYYNDDYYEESYFTTRTYGEP	1.89
YQSKFYNDDYYEESYFTTRTYGEP	2.33
YQSKGYNDDYYEESYFTTVTYGEP	2.26
YQSKGYNDDYYEESYFTTNTYGEP	2.87
YQSKGYNDDYYEESYFTTGTYGEP	3.07

Variant	protein stability index
YQSKGYNDDYYEESYFTTLTYGEP	2.21
YQSKGYNDDYYEESYFTTCTYGEP	2.08
YQSKGYNDDYYEESYFTTFTYGEP	2.11
YQSKGYNDDYYEESYFTTYTYGEP	2.52
YQSKGYNDDYYEESYFTTETYGEP	3.12
YQSKGYNDDYYEESYFTTRCYGEP	2.26
YQSKGYNDDYYEESYFTTRSYGEP	2.33
YQSKGYNDDYYEESYFTTRHYGEP	2.1
YQSKGYNDDYYEESYFTTRYYGEP	1.44
YQSKGYNDDYYEESYFTTRFYGEP	2.23
YQSKGYNDDYYEESYFTTREYGEP	2.52
YQSKGYNDDFYEESYFTTRTYGEP	2.11
YQSKGYNDDHYEESYFTTRTYGEP	2.45
YQSKGYNDDKYEESYFTTRTYGEP	2.44
YQSKGYNDDLYEESYFTTRTYGEP	2.18
YQSKGYNDDGYEESYFTTRTYGEP	2.49
YQSKGYNDDTYEESYFTTRTYGEP	2.5
YQSKGYNDDQYEESYFTTRTYGEP	2.67
YQSKGYNDDEYEESYFTTRTYGEP	3.04
SQSKGYNDDYYEESYFTTRTYGEP	3.67
KQSKGYNDDYYEESYFTTRTYGEP	3.63
DQSKGYNDDYYEESYFTTRTYGEP	4.46
VQSKGYNDDYYEESYFTTRTYGEP	3.67
QQSKGYNDDYYEESYFTTRTYGEP	4.15

Variant	protein stability index
MQSKGYNDDYYEESYFTTRTYGEP	3.22
IQSKGYNDDYYEESYFTTRTYGEP	3.2
HQSKGYNDDYYEESYFTTRTYGEP	3.76
LQSKGYNDDYYEESYFTTRTYGEP	2.92
YQSKGYNDDYYEESYFTTRTYLEP	2.01
YQSKGYNDDYYEESYFTTRTYPEP	2.27
YQSKGYNDDYYEESYFTTRTYFEP	1.77
YQSKGYNDDYYEESYFTTRTYQEP	2.25
YQSKGYNDDYYEESYFTTRTYTEP	2.49
YQSKGYNDDYYEESYFTTRTYCEP	1.92
YQSKGYNDDYYEESYFTTRTYSEP	2.07
YQSKGYNDDYYEESYFTQRTYGEP	2.3
YQSKGYNDDYYEESYFTGRTYGEP	2.09
YQSKGYNDDYYEESYFTFRTYGEP	1.39
YQSKGYNDDYYEESYFTERTYGEP	2.44
YQSKGYNDDYYEESYFTCRTYGEP	2.08
YQSKGYNDDYYEESYFTDRTYGEP	2.46
YQSKGYNDDYYEESYFTSRTYGEP	2.38
YQSKGYNDDYYEESYFTPRTYGEP	1.88
YQSKGYNDDYYEESYFTYRTYGEP	1.76
YKSKGYNDDYYEESYFTTRTYGEP	3.13
YMSKGYNDDYYEESYFTTRTYGEP	2.36
YFSKGYNDDYYEESYFTTRTYGEP	1.93
YTSKGYNDDYYEESYFTTRTYGEP	1.99

Variant	protein stability index
YRSKGYNDDYYEESYFTTRTYGEP	2.54
YVSKGYNDDYYEESYFTTRTYGEP	1.9
YQSKGYNDDYYEESYFGTRTYGEP	2.82
YQSKGYNDDYYEESYFNTRTYGEP	2.35
YQSKGYNDDYYEESYFITRTYGEP	2.1
YQSKGYNDDYYEESYFQTRTYGEP	2.31
YQSKGYNDDYYEESYFHTRTYGEP	2.07
YQSKGYNDDYYEESYFRTRTYGEP	2.44
YQSKGYNDDYYEESMFTTRTYGEP	2.42
YQSKGYNDDYYEESVFTTRTYGEP	2.62
YQSKGYNDDYYEESWFTTRTYGEP	2.24
YQSKGYNDDYYEESNFTTRTYGEP	3.06
YQYKGYNDDYYEESYFTTRTYGEP	2.47
YQWKGYNDDYYEESYFTTRTYGEP	1.72
YQAKGYNDDYYEESYFTTRTYGEP	2.23
YQNKGYNDDYYEESYFTTRTYGEP	2.45
YQRKGYNDDYYEESYFTTRTYGEP	2.75
YQTKGYNDDYYEESYFTTRTYGEP	2.54
YQKKGYNDDYYEESYFTTRTYGEP	2.75
YQDKGYNDDYYEESYFTTRTYGEP	3.31
YQCKGYNDDYYEESYFTTRTYGEP	1.95
YQHKGYNDDYYEESYFTTRTYGEP	2.42
YQIKGYNDDYYEESYFTTRTYGEP	2.14
YQSKGYNDDYEEESYFTTRTYGEP	3.16

Variant	protein stability index
YQSKGYNDDYMEESYFTTRTYGEP	2.51
YQSKGYNDDYTEESYFTTRTYGEP	2.94
YQSKGYNDDYAEESYFTTRTYGEP	2.97
YQSKGYNDDYVEESYFTTRTYGEP	2.34
YQSKGYNDDYFEESYFTTRTYGEP	1.68
YQSKGYNDDYWEESYFTTRTYGEP	1.87
YQSKGYNDDYGEESYFTTRTYGEP	2.84
YQSKGYNDDYPEESYFTTRTYGEP	2.19
YQSKGYNDDYIEESYFTTRTYGEP	2.19
YQSKGYNDDYNEESYFTTRTYGEP	2.98
YQSKGYNDDYDEESYFTTRTYGEP	3.29
YQSKGYNQDYYEESYFTTRTYGEP	1.67
YQSKGYNTDYYEESYFTTRTYGEP	2.09
YQSKGYNLDYYEESYFTTRTYGEP	2.37
YQSKGYNFDYYEESYFTTRTYGEP	2.13
YQSKGYNADYYEESYFTTRTYGEP	1.5
YQSKGYNNDYYEESYFTTRTYGEP	1.82
YQSKGYNPDYYEESYFTTRTYGEP	2.36
YQSKGYNVDYYEESYFTTRTYGEP	2.47
YQSKGYNMDYYEESYFTTRTYGEP	3.87
